Consider 14 molecules from publication PMC10132805 (2023).

To fix the notation:
B1: VHS domain of the ADP-ribosylation factor-binding protein GGA3 (domain or fragment)
chain: ATNPSNRQEDWEYIIGFCDQINKELEGPQIAVRLLAHKIQSPQEWEALQALTVLEACMKNCGRRFHNEVGKFRFLNELIKVVSPKYLGDRVSEKVKTKVIELLYSWTMALPEEAKIKDAYHMLKRQGIVQS
B2: N-terminal domain of clathrin (domain or fragment)
chain: MAQILPIRFQEHLQLQNLGINPANIGFSTLTMESDKFICIREKVGEQAQVVIIDMNDPSNPIRRPISADSAIMNPASKVIALKAGKTLQIFNIEMKSKMKAHTMTDDVTFWKWISLNTVALVTDNAVYHWSMEGESQPVKMFDRHSSLAGCQIINYRTDAKQKWLLLTGISAQQNRVVGAMQLYSVDRKVSQPIEGHAASFAQFKMEGNAEESTLFCFAVRGQAGGKLHIIEVGTPPTGNQPFPKKAVDVFFPPEAQNDFPVAMQISEKHDVVFLITKYGYIHLYDLETGTCIYMNRISGETIFVTAPHEATAGIIGVNRKGQVLSVCVEEENIIPYITNVLQNPDLALRMAVRNNLAGAEELF
B3: centrosomal protein of 55 kDa EABR domain (domain or fragment)
chain: FNSSINNIHEMEIQLKDALEKNQQWLVYDQQREVYVKGLLAKIFELEKKTETAAH
B4: Mu homology domain (MHD) of the AP-2 subunit mu (domain or fragment)
chain: RNELFLDVLESVNLLMSPQGQVLSAHVSGRVVMKSYLSGMPECKFGMNDKIVIEKQGKGTADETSKSGKQSIAIDDCTFHQCVRLSKFDSERSISFIPPDGEFELMRYRTTKDIILPFRVIPLVREVGRTKLEVKVVIKSNFKPSLLAQKIEVRIPTPLNTSGVQVICMKGKAKYKASENAIVWKIKRMAGMKESQISAEIELLPTNDKKKWARPPISMNFEVPFAPSGLKVRYLKVFEPKLNYSDHDVIKWVRYIGRSGIYETR
B5: GAE domain of the ADP-ribosylation factor-binding protein GGA3 (domain or fragment)
chain: SSALPVTAYDKNGFRILFHFAKECPPGRPDVLVVVVSMLNTAPLPVKSIVLQAAVPKSMKVKLQPPSGTELSPFSPIQPPAAITQVMLLANPLKEKVRLRYKLTFALGEQLSTEVGEVDQFP
B6: tumor susceptibility gene 101 protein UEV domain (domain or fragment)
chain: AVSESQLKKMVSKYKYRDLTVRETVNVITLYKDLKPVLDSYVFNDGSSRELMNLTGTIPVPYRGNTYNIPICLWLLDTYPYNPPICFVKPTSSMTIKTGKHVDANGKIYLPYLHEWKHPQSDLLGLIQVMIVVFGDEPPVFSRP

Targets include M 26-41 (RABV); AP1B1 626-641 (Human); RdRp 1840-1855 (SVV); ARRB2 367-382 (Human); L (OLVV); ACP2 407-422 (Human); EGFR 992-1007 (Human); Nsp4 75-90 (BAV); SYNRG 664-679 (Human); VP40 1-20 (SEBOV).
Holding throughout (assay): FP
The target in assay [1] is T1, C terminal domain of polyadenylate-binding protein 1 (human, UniProt P11940 544-623).
T1 chain: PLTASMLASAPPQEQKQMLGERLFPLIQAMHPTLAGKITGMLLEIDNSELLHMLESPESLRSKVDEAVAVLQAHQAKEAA

In assay [2] the target is B2.
Assay [3] addresses Nsp3_(1765-1780) (EEEV) peptide (Eastern equine encephalitis virus).
The target in assay [4] is CEP55 binding peptide from ALIX (human, UniProt Q8WUM4).
Assay [5] addresses Rabies virus (RABV) protein P peptide (Rabies virus).
The target of assay [6] is CEP55 binding peptide from TEX1 (human, UniProt Q8IWB6).
Assay [7] deals with Reston ebolavirus (REBOV) nucleoprotein (NP) peptide (Reston ebolavirus).
Assay [8] deals with NP (ZEBOV) peptide with the 340-YQQL-343 sequence (Zaire ebolavirus, UniProt P18272).
The target in assay [9] is NP (ZEBOV) peptide with the 466-YGEY-469 stretch (Zaire ebolavirus, UniProt P18272).
In assay [10] the target is T2, programmed cell death 6-interacting protein (ALIX) V domain (human).
T2 chain: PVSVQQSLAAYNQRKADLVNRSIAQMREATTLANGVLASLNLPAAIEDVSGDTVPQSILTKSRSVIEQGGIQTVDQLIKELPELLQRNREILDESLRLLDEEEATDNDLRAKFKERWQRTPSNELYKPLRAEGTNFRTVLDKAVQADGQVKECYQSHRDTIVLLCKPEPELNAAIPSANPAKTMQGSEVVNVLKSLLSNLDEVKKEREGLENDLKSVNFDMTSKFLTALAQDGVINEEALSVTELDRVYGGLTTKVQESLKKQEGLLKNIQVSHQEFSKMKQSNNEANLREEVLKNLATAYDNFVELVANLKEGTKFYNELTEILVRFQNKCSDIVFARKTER

The target of assay [11] is TSG101 binding peptide from ALIX (PDC6IP) (human, UniProt Q8WUM4).

NSMLNPNAVPFQPSPQ [N_(2-17) (BeV) peptide]: in assay [1], the dissociation constant Kd is 2.7 µM.
Molecule MSKLSVNAPEFYPSGY [PABP-interacting protein 1 peptide PAIP1_(125-140)] registered an equilibrium dissociation constant (Kd) in assay [1] of 1.6 µM.
On to B1, for which the dissociation constant (Kd) with M 26-41 (RABV) is 150 µM.
VDGAADLIDFSVPTDE [mu-NS_(705-720) (MRV1) peptide]: the Kd in assay [2] was 32 µM.
Consider B2, for which the Kd is 27 µM in assay [3], 280 µM with AP1B1 626-641 (Human), about 800 µM in the assay with RdRp 1840-1855 (SVV) and 39 µM in the assay with ARRB2 367-382 (Human).
In turn, HPLLNPSALEFNPSQT [N_(351-366) (HCoV 229E) peptide] had a dissociation constant (Kd) in [1] of 23 µM.
On to B3, for which the Kd was about 0.3 µM in assay [4], 22 µM in assay [5], about 0.3 µM in assay [6] and 2.2 µM in assay [7].
TTGLNPTAVPFTLRNL [P/V/C_(183-198) (NiV) peptide]: in assay [1], the dissociation constant (Kd) was 15 µM.
As for B4, the Kd came to 11 µM with L (OLVV); 220 µM in the assay with ACP2 407-422 (Human); 2.4 µM with EGFR 992-1007 (Human); 9.5 µM in assay [8]; 16 µM with Nsp4 75-90 (BAV).
As for B5, the Kd in the assay with SYNRG 664-679 (Human) is 11 µM; in [9] it was 10 µM.
The molecule SAGLNPAAVPFVPKNQ [P/V/C_(183-198) (HeV) peptide] displayed a Kd in assay [1] of 2 µM.
VDEEKGLYPNLKLTEPTAPMIHNYM [Nsp4_(118-142) (BAV) peptide] had a Kd in assay [10] of 160 µM.
Consider B6, for which the dissociation constant Kd in assay [11] is 150 µM; with VP40 1-20 (SEBOV), 12 µM.
The molecule KSNLNPNAKEFVPGVK [PABP-interacting protein 2 peptide PAIP2_(108-123)] gave an equilibrium dissociation constant (Kd) in [1] of 0.16 µM.
